Experimental data published in PMC11294389.

What was measured:
GFP-Atx3 15Q (human) = GFP-Atx3 15Q (human) (UniProt P54252); experiment: co-IP; GFP-Trap agarose precipitates GFP-Atx3 from extracts of co-transfected 293T WT cells (1000 µg total protein, 20 µL bead slurry, 4 °C, 1 h); co-precipitated parkin detected by western blot and quantified by densitometry, n = 3
GFP-Atx3 77Q (human) = GFP-Atx3 77Q (human) (UniProt P54252); experiment: as above

- reduction of co-precipitated parkin against parkin WT (GFP-Atx3 15Q (human)): 87%
- reduction of co-precipitated parkin against parkin WT (GFP-Atx3 77Q (human)): 62%
Substance: 6xMyc-parkin V380L (from UniProt O60260-1 1-465) (natural protein)
